Source: the supplement of paper PMC9170038

System: MS2 coat protein
Assay: apparent KD of MS2 coat protein; designed switch direction (-1 OFF switch, 1 ON switch): -1; higher = weaker reporter binding
How it was run: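 Three titration conditions were used: no input, 200 uM small-molecule ligand, and an oligonucleotide input. In each, SNAP-549-labelled MS2 coat protein was raised from 0.7 or 1.5 nM, doubling, to 3 µM over designed RNA switches transcribed on Illumina chips by stalled E. coli RNA polymerase. Curve fits of normalised cluster fluorescence gave values whose per-design median over clusters is the apparent KD.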

[1] = input ligand: microRNA oligo, concentration not stated
[2] = Eterna round: R95, input ligand: microRNA oligo, concentration not stated
[3] = Eterna round: R95, input ligand: FMN 200 uM
[4] = Eterna round: R95, input ligand: none

Sequence | apparent KD of MS2 coat protein (input ligand: FMN 200 uM) [nM] | apparent KD of MS2 coat protein (input ligand: none) [nM] | apparent KD of MS2 coat protein [2] [nM] | also measured
AAGAUGCGGAUAGGAUAUGGAAAGAAGGAAAGACCAGAAGGAUUGGUCAUAUAACAUGAGGAUCACCCAUGUAUAUGUUGUGAA [AK ExNG1-3.1] (Eterna round: R96, puzzle: Exclusion NG 1) |  |  |  | apparent KD of MS2 coat protein [1]: 13 nM
AAGAUGCGGAUAGGAUAUGGAAAUUAAUAAAGACCAGAAGGAUUGGUCACACAACAUGAGGAUCACCCAUGUGUGUGUUGUGAA [AK ExNG1-5] (Eterna round: R96, puzzle: Exclusion NG 1) |  |  |  | apparent KD of MS2 coat protein [1]: 10.6 nM
AAGAUGUGAGGAUAUGUAUCGCAUAUAGAGCGAACACUAGGAUAGAAGGCACAUGAGGAUCACCCAUGUGAUCG [Eternabot (L2) Solution 73] (Eterna round: R97, puzzle: Exclusion 4) | 39.9 | 45.3 |  | 
AAGCAGUCAGGAUAUCGUUAAUUUAGUUGUUUGUAUUAGUUCGAGAAGGGACAUGAGGAUCACCCAUGUAAGAA [Ex4 #43] (Eterna round: R97, puzzle: Exclusion 4) | 40.5 | 41 |  | 
AAGCCCUGAGGAUAUCCUUACUCGCACAUGAGGAUCACCCAUGUCCUCCUCCGGGCUUCGGGAGAAGGCAGGUCUC [Megrez-7.7] (Eterna round: R97, puzzle: Exclusion 5) | 40.1 | 56.6 |  | 
AAGCCUGGCUCAGGAUAUACAUGAGGAUCACCCAUGUUCUCAGUGAGGCAAGAUAACAACACGACGUAGAAGGGAGCUAGGCCG [Eternabot solution 5] (Eterna round: R96, puzzle: Exclusion NG 2) | 81.7 | 40 |  | apparent KD of MS2 coat protein [1]: 17.9 nM
AAGCUUUUUGGUGACCUCGACAUGAGGAUCACCCAUGUCGUAUUAGAACUUCGGACGAUGAUCGUGCUCGUCAUAAG [Eternabot (Original) Solution 43] (Eterna round: R97, puzzle: Sensor, turn-off variant 1) | 598 | 677 |  | 
AAGGAACGAGGAUAUGCAGGUUGAGCUCGAGUUCGACCGGAACAUGAGGAUCACCCAUGUAGAAGGUGUAUCCC [Vedibe] (puzzle: Exclusion 2) |  |  | 24 | 
AAGGCGGUAGGAUAUACAUGAGGAUCACCCAUGUACGCGUGGAUCCCUGUGACGUCAAGUAGAAGGGCCAUAAA [Xetesobiar] (Eterna round: R97, puzzle: Exclusion 3) | 27.5 | 31.8 |  | 
AAGUACCGUCACGAAAGUGAUGGUACAGCAAGUAAAUGUACAUGAGGAUCACCCAUGUCCUCAAUUGCUCGUCUUAU [Sensor 3 - 59] (puzzle: Sensor v3, turn-off variant 2) |  |  | 173 | apparent KD of MS2 coat protein [3]: 185 nM; apparent KD of MS2 coat protein [4]: 212 nM
AAGUACCGUCACGAUAGUGAUGGUACAACAAGCAAAUAUACAUGAGGAUCACCCAUGUCCUCUUUUGCUCGUCUUGU [Sensor 3] (puzzle: Sensor v3, turn-off variant 2) |  |  | 237 | apparent KD of MS2 coat protein [3]: 798 nM; apparent KD of MS2 coat protein [4]: 900 nM
AAGUACCGUCACGAUAGUGAUGGUACAACAAGCAGGUGAACAUGAGGAUCACCCAUGUCCUCAAUUGCUCGUCUUAU [Sensor 3 - 73] (puzzle: Sensor v3, turn-off variant 2) |  |  | 48.3 | apparent KD of MS2 coat protein [3]: 156 nM; apparent KD of MS2 coat protein [4]: 159 nM
AAGUAGGGAGGAUAUACAUAGAUACAGAUUCAUGUAGAACUACAUGAGGAUCACCCAUGUAGAAGGCCCUAAUA [AJ 37] (Eterna round: R96, puzzle: Exclusion 2) | 255 | 27.9 |  | apparent KD of MS2 coat protein [1]: 25.1 nM
AAGUCGGCAGGAUAUACAUGAGGAUCACCCAUGUAAAUUUUUCGUUUAACUUGAAUGUGUAGAAGGGCCAUAAA [Ex3 #66] (Eterna round: R97, puzzle: Exclusion 3) | 24.3 | 24.5 |  | 
AAGUGCGAAGGAUAUACAUGAGGAUCACCCAUGUUCACCAAAACACAGGUCUCAGACUGUAGAAGGUCGCACAG [Eternabot (Original) Solution 45] (Eterna round: R97, puzzle: Exclusion 3) | 605 | 59.8 |  | 
AAGUUACAUGAGGAUCACCCAUGUGAGGAUAUGAGUCAGUCACGGUGACGUGGCUGACUCAGAAGGCACAAUGG [JL-ex1-4.41 salish99 mod] (Eterna round: R97, puzzle: Exclusion 1) | 43 | 290 |  | 
AAUAAACAUGAGGAUCACCCAUGUCAGGAUAUCCAUUUGUUUUUGUUGGUUUUUUUUUGGAGAAGGGACGCUUA [Lollin - Alpha 1] (puzzle: Exclusion 1) |  |  | 58.1 | 
AAUAAAGGAGGAUAUACUAAAAUAUGAAUAAAAUAAAUAAAACAUGAGGAUCACCCAUGUAGAAGGCCUAAUAA [JMF's Not so obvious solution 3] (puzzle: Exclusion 2) |  |  | 23.9 | apparent KD of MS2 coat protein [3]: 22.8 nM; apparent KD of MS2 coat protein [4]: 25.2 nM
AAUAACAAGCUGAUCCUAAACAUGAGGAUCACCCAUGUGUUCGUCUUGUAAAGUACUAUCACGAAAGUGAUAGUACA (Eterna round: R97, puzzle: Sensor, turn-off variant 1) | 75.2 | 80 |  | 
AAUAACAAGCUGAUCCUCCACAUGAGGAUCACCCAUGUGUUCGUCUUGUAAAGUACUAUCACGAAAGUGAUAGUACA (Eterna round: R97, puzzle: Sensor, turn-off variant 1) | 984 | 1630 |  | 
AAUAACAGAGGAUAUACUAUUUUAUGUAUUUAUUAUUUUGAACAUGAGGAUCACCCAUGUAGAAGGCUGAAUAA [JMF 20] (puzzle: Exclusion 2) |  |  | 19.9 | 
AAUAACAGAGGAUAUACUGUUUUAUGUAUUUAUUAUUUUAAACAUGAGGAUCACCCAUGUAGAAGGCUGAUUGA [JMF 71] (puzzle: Exclusion 2) |  |  | 26.8 | 
AAUAACAGAGGAUAUACUGUUUUAUGUGUUUAUUGUUUUAAACAUGAGGAUCACCCAUGUAGAAGGCUGAGUAA [JMF 32] (puzzle: Exclusion 2) |  |  | 33.5 | 
AAUAAGUGAGGAUAUACGUCUGGACCCGGGAGGGAAAUAAAACAUGAGGAUCACCCAUGUAGAAGGCACAAUAA [Excls2-III] (puzzle: Exclusion 2) |  |  | 13.5 | apparent KD of MS2 coat protein [3]: 17.5 nM; apparent KD of MS2 coat protein [4]: 16.9 nM
AAUAAGUGAGGAUAUCCAAUAAUAAAUAAAAUAAUAAAUAAGGAGAAGGCACAUGAGGAUCACCCAUGUAAUAA [JMF's solution 2] (puzzle: Exclusion 4) |  |  | 14.8 | apparent KD of MS2 coat protein [3]: 19 nM; apparent KD of MS2 coat protein [4]: 15.7 nM
